{"source": "patent US20200179530A1", "about": "“TARGETED DELIVERY OF THERAPEUTIC AGENTS AND IMAGING REAGENTS TO PANCREATIC CANCER CELLS” (UNIVERSITY OF MIAMI, priority 2016, published 2020)", "origin": "cited, not measured here"}
{"substance": "AvidinOX: avidin variant containing aldehyde groups, generated by ligand-assisted sugar oxidation of avidin by sodium periodate", "values": [{"measurement": "half-life in tissue", "value": "weeks"}]}
{"substance": "native avidin: native avidin, comparator for AvidinOX half-life", "values": [{"measurement": "half-life", "setting": "tissue", "value": "about two"}]}
